Source: paper doi:10.1101/2024.04.27.591446 (bioRxiv, 2024)

Key:
SARS-CoV1 Spike = SARS-CoV1 Spike (SARS-CoV, strain  (P59594 …, UniProt P59594)); test: ELISA
SARS-CoV-2 RBD WU1 = SARS-CoV-2 RBD WU1 (SARS-CoV-2 Wuhan-Hu-1, UniProt P0DTC2); test: SPR

B1: 1301B7 recombinant human monoclonal antibody (hmAb), IgG1 (antibody, V domains shown)
VH: EVQLVESGAEVKNPGSSVKVSCKASEGTFGSYPIIWVRQAPGQGLEWVGGIIPILGTVIYAQKFQGRVTITGDTYAGSAHMELSGLRSEDTAVFYCARGSYDYGDRLLNYTYYAMDVWGPGTTVTVSS
VL: QPGLTQPPSVSGAPGQRVTISCTGSRSNIGAVYAVHWYQHVPGAAPKLLIYENNNRPSGIPDRFSGSKSGTSASLVITGLQAEDEADYLCQSYDRSVGVVFGGGTRLTVL
- binding result (SARS-CoV1 Spike): binds
- binding result (SARS-CoV-2 RBD WU1): binds
